In patent US20170252403A1, “METHODS AND COMPOSITIONS FOR TREATING RETINAL DISORDERS” (AMARANTUS BIOSCIENCE HOLDINGS, INC., priority 2014, published 2017):
“And” between values parts separate entries of the source, which are not always exact repeats. Equal entries are not always repeated. “Also recorded” adds a separate entry of the source. Where two headings read alike, the source gives them in different places.

What was measured:
[1] = test system: eyes of pigmented rabbits; test: 15-day ocular tolerance study after single intravitreal administration; format: in vivo, pigmented rabbit; settings: MANF 3 mg/mL, 100 μL single intravitreal
Excerpt: Ten female pigmented rabbits were divided into two groups of five animals each, corresponding to both treatments.
The eyes of the animals were examined by Split-lamp and assessed by using the McDonald-Shadduck's scale at Baseline and at Days 1, 3, 8 and 15. At the end of the in-life period on Day 15 both eyeballs of all animals were collected and processed for histology and microscopic examination.

[2] = test system: ischemia of the brain (tMCAO); settings: cited from earlier work
[3] = test system: primary mixed cortical/hippocampal neuronal cultures; settings: cultures exposed to the ER stressor tunicamycin; cited from earlier work
[4] = test system: retinal ganglion cells (RGC); test: Retinal ganglion cell survival (Brn3a immunohistochemistry on flat-mounted retinas) after retinal ischemia; settings: for Alive cells (BrN3A positive) in right eye, group Mean / Alive cells (BrN3A positive) in right eye, individual mean cells/mm^2: right injured eye; for Alive cells (BrN3A positive) in right eye, group Mean / Alive cells (BrN3A positive) in right eye, individual mean cells/mm^2 / RGC density, alive cells (BrN3A positive) in right eye: 7 days after ischemia; for Alive cells (BrN3A positive) in right eye, individual mean cells/mm^2: individual rats; for RGC density, alive cells (BrN3A positive) in right eye: 4 μL intravitreal once after reperfusion; for Alive cells (BrN3A positive) in right eye, group Mean / RGC density, alive cells (BrN3A positive) in right eye: group mean;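 as to all read-outs here: sprague Dawley rats, right optic nerve vessels clamped 45 min then reperfused, Brn3a-stained RGC counted on flat-mounted retinas in cells/mm^2, 8 fields per retina, uninjured left eyes as naive controls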
Description: (§1) In this Example, retinal ischemia was induced by transient vascular clamping of the optic nerve in the right eyes of Sprague Dawley albino rats for 45 min. Reperfusion was initiated by the release of the clamp. Retinal function was evaluated by ERG at baseline and 7 days after ischemia. RGC survival was assessed by immunohistochemistry 7 days after ischemia.
(§2) Retinal ischemia was induced by vascular clamping of the optic nerve in the right eyes for 45 min. Reperfusion was initiated by the release of the clamp. Retinal function was evaluated by electroretinography (ERG) at baseline and 7 days after ischemia. Retinal Ganglion Cell (RGC) survival was assessed by immunohistology 7 days after ischemia.
To assess the effect of the treatment on RGC viability, the RGC density was evaluated 7 days after ischemia by immunohistochemistry with a stain for the RGC specific marker Brn3a.
After euthanasia, the right eyeballs were fixed in Formalin 4% (24 h at 4° C.), dissected and retinas were flat mounted. Two left eyes retinas per group were sampled and processed the same as the right eye retinas. They served as naïve controls. The flat mounted preparations were stained with an Alexa 594 conjugated anti-BRN3A (Brain-specific hoeobox/POU domain protein 3A, Chemicon, cat #mAb1585) to label RGC. Fluorescence images were recorded with Apotome microscope at magnification ×10 (Zeiss). RGC were counted with Image J software in 8 locations for each retina area (2 pictures per quarter). The cell count was reported in cell/mm^2.

[5] = test system: retinal function after transient retinal ischemia (optic nerve clamping); test: Electroretinography (ERG a-wave/b-wave amplitude) after retinal ischemia by optic nerve clamping
Description: as §1, §2
The functional status of the retina was evaluated by electroretinography one week after the ischemic insult and compared to baseline values determined just prior to optic nerve ischemia. The b-wave is induced by potassium efflux shunted from activated bipolar cells by Müller cells and is an electrophysiological indicator of inner retinal signal transmission. The ERG parameters applied were the following: Color: white maximum; Maximum intensity: 2.6 cd·s/m2 (0 dB); Duration 0.24 ms; Numbers of flashes: 1; Filter: 50 Hz; Impedance threshold: 90 kΩ.
Test and control items were injected intravitreally (4 μL) in right eye from anesthetized rat using a mix of xylazine/ketamine and a 30-G needle mounted on a syringe, immediately after reperfusion.
Reference item was intraperitoneally dosed using a 0.5 mL/kg volume of administration, 30 min before induction.
Right eyes underwent a temporal orbitectomy combined with periorbital stripping. The globe remained in the orbit and was completely isolated on a pedicle consisting of the optic nerve, ophthamociliary arteries and the venous outflow. A clamp placed around the pedicle initiated the global ocular ischemia when tightened.
Ischemia was maintained for 45 minutes. The reperfusion period was initiated by the release of the clamp.
ERG was recorded before ischemia (baseline) and 7 days after reperfusion in both eyes. The a-wave and b-wave amplitudes (μV) were measured for each ERG; the a-wave and b-wave amplitudes as a percentage of the baseline values obtained before ischemia. […] Mydriaticum (0.5% tropicamide) were instilled for pupillary dilatation.
ERG parameters: • Color: white maximum. • Maximum intensity: 2.6 cd·s/m2 (0 dB); Duration 0.24 ms; number of flash: 1. • Filter: 50 Hz. • Impedance Threshold: 90 kΩ.

[6] = General behavior and body weight in the rat retinal ischemia study; settings: for Body weight, sacrifice day, mean: Day 7, group mean
Description: The body weight of all animals was recorded before the start of the study, on Day 0 and at the end of the study (Day 7).
Each day, the general behavior and the aspect of all animals were observed.

[7] = MANF 1.5 mg/mL intravitreal, treated right (ischemic) eye, individual rats

B1: mesencephalic astrocyte-derived neurotrophic factor (protein)
chain: GRFYQDLKDRDVTFSPATIENELIKFCREARGKENRLCYYIGATDDAATKIINEVSKPLAHHIPVEKICEKLKKKDSQICELKYDKQIDLSTVDTKKLRVKELKKILDDWGETCKGCAEKSDYIRKINELMPKYAPKAASARTDL
Effects on body weight, clinical observations or ophthalmic examinations ([1]; right eye, 15 days, McDonald-Shadduck scale): no treatment- or administration-related effects
Ocular tolerance ([1]; 15 days): macroscopically and microscopically well tolerated
Histopathology evaluation of the eyes ([1]; Day 15): No pathological findings related to treatment
Reduction of infarct size ([2]; MANF expressed in the cortex using an AAV-based vector): 40%
Reduction of infarct size ([2]; day 2, compared to vehicle treated animals): 50%
Protection against tunicamycin (TUNEL-positive cells as marker of apoptosis) [3]: fully protected
Alive cells (BrN3A positive) in right eye, group Mean ([4]; MANF 0.15 mg/mL intravitreal): 402.8 cells/mm^2
Alive cells (BrN3A positive) in right eye, individual mean cells/mm^2 ([4]; MANF 0.15 mg/mL intravitreal): 469 cells/mm^2 and 722 cells/mm^2 and 636 cells/mm^2 and 471 cells/mm^2 and 456 cells/mm^2 and 374 cells/mm^2 and 161 cells/mm^2 and 432 cells/mm^2 and 408 cells/mm^2 and 448 cells/mm^2 and 47 cells/mm^2 and 210 cells/mm^2
RGC density, alive cells (BrN3A positive) in right eye ([4]; MANF 0.15 mg/mL): 403±189 cells/mm^2 and 402.8 cells/mm^2
Alive cells (BrN3A positive) in right eye, group Mean ([4]; MANF 0.5 mg/mL intravitreal): 464.9 cells/mm^2
Alive cells (BrN3A positive) in right eye, individual mean cells/mm^2 ([4]; MANF 0.5 mg/mL intravitreal): 512 cells/mm^2 and 443 cells/mm^2 and 613 cells/mm^2 and 364 cells/mm^2 and 379 cells/mm^2 and 549 cells/mm^2 and 336 cells/mm^2 and 97 cells/mm^2 and 249 cells/mm^2 and 1209 cells/mm^2 and 105 cells/mm^2 and 724 cells/mm^2
RGC density, alive cells (BrN3A positive) in right eye ([4]; MANF 0.5 mg/mL): 465±301 cells/mm^2 and 464.9 cells/mm^2
Alive cells (BrN3A positive) in right eye, group Mean ([4]; MANF 1.5 mg/mL intravitreal): 487.7 cells/mm^2
Alive cells (BrN3A positive) in right eye, individual mean cells/mm^2 ([4]; MANF 1.5 mg/mL intravitreal): 546 cells/mm^2 and 378 cells/mm^2 and 549 cells/mm^2 and 723 cells/mm^2 and 536 cells/mm^2 and 974 cells/mm^2 and 197 cells/mm^2 and 543 cells/mm^2 and 488 cells/mm^2 and 260 cells/mm^2 and 342 cells/mm^2 and 316 cells/mm^2
RGC density, alive cells (BrN3A positive) in right eye ([4]; MANF 1.5 mg/mL): 488±214 cells/mm^2 and 488±14 cells/mm^2 and 487.7 cells/mm^2
Protection of RGC, in words ([4]; single intravitreal MANF at 0.15, 0.5 and 1.5 mg/mL, one-week reperfusion): a trend in protecting RGCs; also recorded: protecting RGC
A-wave amplitude (μV), treated right eye ([5]; MANF 0.5 mg/mL intravitreal, Day 7, group mean): −268.9 μV
A-wave Amplitude (μV) Day 7 [5, 7]: −254 μV and −299 μV and −255 μV
B-wave Amplitude (μV) Day 7 [5, 7]: 426 μV and 456 μV
Body weight, sacrifice day, mean ([6]; MANF 0.15 mg/mL intravitreal): 343 g
Body weight, sacrifice day, mean ([6]; MANF 0.5 mg/mL intravitreal): 345 g
Body weight, sacrifice day, mean ([6]; MANF 1.5 mg/mL intravitreal): 347 g
General behavior and appearance ([6]; daily observation during the study period, regardless the dose): not altered
